Experimental findings from patent US20130108623A1 are described below.

In one assay the target is FcγRIIa (H) variant (UniProt P12318). Kind of assay: in vitro binding, method not stated for the single mutant.
Another assay concerns the target FcγRIIb (UniProt P31994). The description is as above.
UniProt P31994, sequence (P31994 43-217 limits assumed): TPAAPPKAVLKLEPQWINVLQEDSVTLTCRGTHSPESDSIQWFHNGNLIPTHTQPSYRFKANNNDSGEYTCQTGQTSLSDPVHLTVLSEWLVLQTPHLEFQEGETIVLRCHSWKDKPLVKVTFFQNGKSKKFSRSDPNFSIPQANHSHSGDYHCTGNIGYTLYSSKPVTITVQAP

UniProt P12318, sequence (P12318 34-217 limits assumed, change not shown): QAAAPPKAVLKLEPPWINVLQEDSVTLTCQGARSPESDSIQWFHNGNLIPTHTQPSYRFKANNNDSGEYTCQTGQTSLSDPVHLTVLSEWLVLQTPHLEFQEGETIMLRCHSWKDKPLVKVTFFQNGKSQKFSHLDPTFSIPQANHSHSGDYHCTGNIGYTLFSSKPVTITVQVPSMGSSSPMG

On to “Fc variant D270N (single mutation) (antibody)”, for which the fold reduction of binding against wild type with FcγRIIa (H) variant and with FcγRIIb was 100 fold each time.

Substance “Fc variant K326E (single mutation) (antibody)” displayed a fold improvement of binding against wild type with FcγRIIb of 4 fold.
